Target: T1, Ku70_1-250 mutant (N-terminal alpha/beta-domain of Ku70) with N-terminal GST-tag (human, UniProt P12956 1-250)
T1 construct: Ku70, human, residues 1-250 (N-terminal alpha/beta domain); also called Ku_1-250; Ku70 N-terminal domain; not shown: GST, N-terminal, kept
Test: pull-down; GST-pull-down: GST-Ku70 proteins (or GST) held on glutathione-agarose, His6-IN proteins as prey; buffer A (20 mM Hepes pH 7.5, 100 mM NaCl, 7.5 mM MgCl2, 2 mM 2-mercaptoethanol, 50 ug/ml BSA, 0.1% NP40), room temperature, Western blot; Kd from increasing IN at 50 nM Ku70 mutant
Details: both partners purified

T1 sequence (P12956 1-250, change not shown): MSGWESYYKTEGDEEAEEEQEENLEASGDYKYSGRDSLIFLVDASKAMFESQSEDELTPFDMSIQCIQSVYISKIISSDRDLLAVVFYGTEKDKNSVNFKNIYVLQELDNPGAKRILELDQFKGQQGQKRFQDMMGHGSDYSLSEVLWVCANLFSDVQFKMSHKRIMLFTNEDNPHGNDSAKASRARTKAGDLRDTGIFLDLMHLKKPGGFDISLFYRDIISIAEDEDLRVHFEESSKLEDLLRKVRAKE

B1: IN_1-220 (HIV-1 integrase with truncated C-terminal domain), N-terminal His6-tag (domain or fragment)
chain: FLDGIDKAQDEHEKYHSNWRAMASDFNLPPVVAKEIVASCDKCQLKGEAMHGQVDCSPGIWQLDCTHLEGKVILVAVHVASGYIEAEVIPAETGQETAYFLLKLAGRWPVKTIHTDNGSNFTGATVRAACWWAGIKQEFGIPYNPQSQGVVESMNKELKKIIGQVRDQAEHLKTAVQMAVFIHNFKRKGGIGGYSAGERIVDIIATDIQTKELQKQITKI
notes: not shown: His6, N-terminal, kept
With B1 the Kd was 120 ± 30 nM.
